How the values were obtained:
γ-secretase = γ-secretase cleavage on Notch (NICD generation) and nicastrin level; type: cell-based, mouse
Source text: The levels of the recombinant Notch (NotchΔE with Myc-tag) and the γ-secretase cleaved Notch fragment (NICD) were quantified by Western blotting using myc antibody and an antibody specific to processed Notch followed by densitometry. […] The results represent at least four independent experiments.
N2a cells were transfected with Myc-tagged Notch1 NΔE construct lacking the ectodomain, which allows ligand-independent processing by γ-secretase to produce NICD (Schroeter et al., 1998). NICD generation was analyzed by immunoblot with an antibody specifically recognizing the cleaved Notch product NICD (Cell Signaling Technology).
Cleavage of Notch, another important γ-secretase substrate (Kopan and Goate, 2000), was not altered by FG01 overexpression. N2a cells were transfected with Myc-tagged Notch1 NΔE construct. After equal splitting, cells were transfected with control vector (Con) or FG01. Cell lysates were subjected to SDS-PAGE and Western blot with the Myc antibody (recognizing both exogenous FG01 and Notch NΔE) and with an NICD-specific antibody. Protein levels of nicastrin, an important component of the γ-secretase complex, were also not affected by FG01 overexpression.

GSK-3α/β = experiment: phospho-GSK-3α/β Western blot in human HeLaSwe and HEK293 cells; type: cell-based
Source text: Expression of β-catenin, inactivated phospho-GSK-3β, total GSK-3, APP, β-CTF and FG01 in transfected human HEK293 cells were shown by Western blots.
Although the possibility that FG01 may modulate substrate specificity or accessibility to γ-secretase can not be excluded, it is equally possible that FG01 regulates other proteins/pathways functioning in APP processing and Aβ generation. […] Thus, the activities of GSK-3α/β were studied in the presence or absence of FG01 overexpression by examining levels of phospho-GSK-3α (Ser 21) and phospho-GSK-3β (Ser 9) (which represent inactivated forms of GSK-3) and by in vitro kinase assays.

protein levels of nicastrin (γ-secretase; FG01 overexpression in N2a cells): not affected
Notch cleavage (γ-secretase; Notch ΔE cotransfected with FG01): not altered
B1: FG01: 141 amino acid transmembrane protein encoded by mouse retrogene fg01 (SEQ ID NO:2); expressed from transfected vector or transgene (protein)
chain: MQSQQRNIGYFNHLKADSRNITYSMTFSTKSSNQNFIIFLNEVQAAIIGHERCDLLPVLNELHPDALPDGRIWLFGLNPYFFQHNSLCMRGTPKRIGLQGCAQVGFLVLFVMPLLIPSVTAELPGSSETTTLAHLAGATGP
modifications: Myc and His6 tags; homo sapien
notes: expressed from transfected vector or transgene
GSK-3 activities (inactivated phospho-GSK-3β) (GSK-3α/β; FG01 expression, human HEK293 cells, Western blot): decreases
phospho-GSK-3α (Ser21) and phospho-GSK-3β (Ser9) levels (GSK-3α/β; FG01 overexpression, human HeLaSwe and HEK293 cells): more highly phosphorylated

From patent publication US20090233993A1, “COMPOSITIONS AND METHODS FOR INHIBITING GSK3 ACTIVITY AND USES THEREOF” (Burnham Institute for Medical Research, priority 2008, published 2009)
